Data on 1 protein can be found in US20040014134.

This data set has as its target Fusion protein B (variant 2; rsGFP - cleavage site segment with TEV protease cleavage site - DsRed).

B1: TEV protease (protease from the tobacco etch virus) (protein)
chain: GESLFKGPRDYNPISSTICHLTNESDGHTTSLYGIGFGPFIITNKHLFRRNNGTLLVQSLHGVFKVKNTTTLQQHLIDGRDMIIIRMPKDFPPFPQKLKFREPQREERICLVTTNFQTKSMSSMVSDTSCTFPSSDGIFWKHWIQTKDGQCGSPLVSTRDGFIVGIHSASNFTNTNNYFTSVPKNFMELLTNQEAQQWVSGWRLNADSVLWGGHKVFMSKPEEPFQPVKEATQLMNELVYSQ
Consider B1, for which the “two-photon cross-correlation amplitude (dual-colour FCS protease cleavage assay)” value is “The cleavage of the bond and the consequent reduction of the proportion of double fluorescing molecules in the measurement solution cause the decrease of the cross-correlation amplitude”.
